In patent publication US20260116921A1, “PEPTIDE INHIBITORS OF INTERLEUKIN-23 RECEPTOR AND THEIR USE TO TREAT INFLAMMATORY DISEASES” (priority 2018, published 2026):
Numbered stars: 1 amine (or outer) side, 2 acyl side, 3 side chain; on linkers, the order of the positions; unused ones are H or OH. Bridge positions count the residues as written; N and C are the ends. Square brackets hold non-standard residues; d marks the D form. Trp(7-nPr) = CCCc1cccc2c(C[C@H](N[*:1])C(=O)[*:2])c[nH]c12; Trp(7-Me) = Cc1cccc2c(C[C@H](N)C(=O)O)c[nH]c12; 2Nal = N[C@@H](Cc1ccc2ccccc2c1)C(=O)O; AEF = NCCOc1ccc(C[C@H](N)C(=O)O)cc1; Cit = NC(=O)NCCC[C@H](N)C(=O)O; Pen = CC(C)(S)[C@H](N)C(=O)O; αMeK = C[C@](N)(CCCCN)C(=O)O; Abu = CC[C@H](N)C(=O)O; Aib = CC(C)(N)C(=O)O; βAla = NCCC(=O)O

T1: IL-23R (human, UniProt Q5VWK5 24-629)
T1 sequence (looked up): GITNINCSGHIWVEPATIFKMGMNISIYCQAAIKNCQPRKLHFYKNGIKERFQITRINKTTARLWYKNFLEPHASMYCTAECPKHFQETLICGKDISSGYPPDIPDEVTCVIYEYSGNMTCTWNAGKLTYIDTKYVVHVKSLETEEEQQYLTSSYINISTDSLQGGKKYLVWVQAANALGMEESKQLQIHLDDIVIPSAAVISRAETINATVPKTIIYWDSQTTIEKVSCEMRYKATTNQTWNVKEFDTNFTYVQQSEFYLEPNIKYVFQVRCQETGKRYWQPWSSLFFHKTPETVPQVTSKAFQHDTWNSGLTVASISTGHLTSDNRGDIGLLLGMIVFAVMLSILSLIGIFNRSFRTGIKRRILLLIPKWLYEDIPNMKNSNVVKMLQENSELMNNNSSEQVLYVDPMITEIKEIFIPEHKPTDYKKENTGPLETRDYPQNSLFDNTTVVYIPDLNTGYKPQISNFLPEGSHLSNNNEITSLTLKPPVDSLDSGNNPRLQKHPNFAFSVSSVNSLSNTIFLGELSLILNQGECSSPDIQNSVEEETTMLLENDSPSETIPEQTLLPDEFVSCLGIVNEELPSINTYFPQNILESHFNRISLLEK

B1: SEQ ID NO: 252 (peptide)
peptide: XNTXKXXXXKNK
modifications: Ac-[Pen]-NT-[W(7-Me)]-[Lys(Ac)]-[Pen]-Phe[4-(2-aminoethoxy)]-[2-Nal]-[a-MeLys]-[Lys(Ac)]-N-[(D)Lys]-NH2; Pen-Pen disulfide
B2: SEQ ID NO: 259 (peptide)
peptide: Ac-[Pen]NT[Trp(7-Me)][Cit][Pen][AEF][2Nal][αMeK]K(Ac)N[dY]-NH2
modifications: disulfide 1-6 (inferred)
B3: SEQ ID NO: 285 (peptide)
peptide: Ac-[Pen]NT[Trp(7-nPr)]K(Ac)[Pen][AEF][2Nal][αMeK]K(Ac)N[dL]-NH2
modifications: disulfide 1-6 (inferred)
B4: SEQ ID NO: 324 (peptide)
peptide: Ac-[dR][Abu]QT[Trp(7-Me)]K(Ac)C[AEF][2Nal][αMeK]K(Ac)N[dK]-NH2
modifications: thioether 2-7
B5: SEQ ID NO: 347 (peptide)
peptide: Ac-[Pen]NT[Trp(7-Me)][Cit][Pen][AEF][2Nal][αMeK]K(Ac)N[Aib][dY]-NH2
modifications: disulfide 1-6
SMILES: CC(=O)NCCCC[C@H](NC(=O)[C@](C)(CCCCN)NC(=O)[C@H](Cc1ccc2ccccc2c1)NC(=O)[C@H](Cc1ccc(OCCN)cc1)NC(=O)[C@H]1NC(=O)[C@H](CCCNC(N)=O)NC(=O)[C@H](Cc2c[nH]c3c(C)cccc23)NC(=O)[C@H]([C@@H](C)O)NC(=O)[C@H](CC(N)=O)NC(=O)[C@@H](NC(C)=O)C(C)(C)SSC1(C)C)C(=O)N[C@@H](CC(N)=O)C(=O)NC(C)(C)C(=O)N[C@H](Cc1ccc(O)cc1)C(N)=O
B6: SEQ ID NO: 221 (peptide)
peptide: XNTXQXXXXKSX
modifications: Ac-[Pen]-NT-[W(7-Me)]-Q-[Pen]-Phe[4-(2-aminoethoxy)]-[2-Nal]-[a-MeLeu]-[Lys(Ac)]-S-[bA]-NH2; Pen-Pen disulfide
B7: SEQ ID NO: 234 (peptide)
peptide: XNTXXXXXXKNX
modifications: Ac-[Pen]-NT-[W(7-Me)]-[a-MeLys]-[Pen]-Phe[4-(2-aminoethoxy)]-[2-Nal]-[a-MeLeu]-[Lys(Ac)]-N-[bA]-NH2; Pen-Pen disulfide
B8: SEQ ID NO: 258 (peptide)
peptide: XNTXKXXXXKNF
modifications: Ac-[Pen]-NT-[W(7-Me)]-[Lys(Ac)]-[Pen]-Phe[4-(2-aminoethoxy)]-[2-Nal]-[a-MeLys]-[Lys(Ac)]-N-[(D)Phe]-NH2; Pen-Pen disulfide
B9: SEQ ID NO: 220 (peptide)
peptide: XNTXQXXXXGPX
modifications: Ac-[Pen]-NT-[W(7-Me)]-Q-[Pen]-Phe[4-(2-aminoethoxy)]-[2-Nal]-[a-MeLeu]-G-[(D)Pro]-[bA]-NH2; Pen-Pen disulfide
B10: SEQ ID NO: 226 (peptide)
peptide: XNTXQXXXXKXX
modifications: Ac-[Pen]-NT-[W(7-Me)]-Q-[Pen]-Phe[4-(2-aminoethoxy)]-[2-Nal]-[a-MeLeu]-[Lys(Ac)]-[bA]-[bA]-NH2; Pen-Pen disulfide
B11: SEQ ID NO: 239 (peptide)
peptide: XKTXQXXXXKNX
modifications: Ac-[Pen]-[Lys(Ac)]-T-[W(7-Me)]-Q-[Pen]-Phe[4-(2-aminoethoxy)]-[2-Nal]-[a-MeLys]-[Lys(Ac)]-N-[bA]-NH2; Pen-Pen disulfide
B12: SEQ ID NO: 236 (peptide)
peptide: XNTXQXXXXXNX
modifications: Ac-[Pen]-NT-[W(7-Me)]-Q-[Pen]-Phe[4-(2-aminoethoxy)]-[2-Nal]-[a-MeLys]-[Aib]-N-[bA]-NH2; Pen-Pen disulfide
B13: SEQ ID NO: 238 (peptide)
peptide: Ac-[Pen][Cit]T[Trp(7-Me)]Q[Pen][AEF][2Nal][αMeK]K(Ac)N[βAla]-NH2
modifications: disulfide 1-6
SMILES: CC(=O)NCCCC[C@H](NC(=O)[C@](C)(CCCCN)NC(=O)[C@H](Cc1ccc2ccccc2c1)NC(=O)[C@H](Cc1ccc(OCCN)cc1)NC(=O)[C@H]1NC(=O)[C@H](CCC(N)=O)NC(=O)[C@H](Cc2c[nH]c3c(C)cccc23)NC(=O)[C@H]([C@@H](C)O)NC(=O)[C@H](CCCNC(N)=O)NC(=O)[C@@H](NC(C)=O)C(C)(C)SSC1(C)C)C(=O)N[C@@H](CC(N)=O)C(=O)NCCC(N)=O
B14: SEQ ID NO: 346 (peptide)
peptide: Ac-[Pen]NT[Trp(7-Me)][Cit][Pen][AEF][2Nal][αMeK]K(Ac)N[Aib][dF]-NH2
modifications: disulfide 1-6
SMILES: CC(=O)NCCCC[C@H](NC(=O)[C@](C)(CCCCN)NC(=O)[C@H](Cc1ccc2ccccc2c1)NC(=O)[C@H](Cc1ccc(OCCN)cc1)NC(=O)[C@H]1NC(=O)[C@H](CCCNC(N)=O)NC(=O)[C@H](Cc2c[nH]c3c(C)cccc23)NC(=O)[C@H]([C@@H](C)O)NC(=O)[C@H](CC(N)=O)NC(=O)[C@@H](NC(C)=O)C(C)(C)SSC1(C)C)C(=O)N[C@@H](CC(N)=O)C(=O)NC(C)(C)C(=O)N[C@H](Cc1ccccc1)C(N)=O
B15: SEQ ID NO: 273 (peptide)
peptide: XNTXKXXXXEXX
modifications: Ac-[Pen]-N-T-[W(7-Me)]-[Lys(Ac)]-[Pen]-Phe[4-(2-aminoethoxy)]-[2-Nal]-[a-MeLys]-E-[bA]-[bA]-NH2; Pen-Pen disulfide
B16: SEQ ID NO: 223 (peptide)
peptide: XNTXQXXXXKXX
modifications: Ac-[Pen]-NT-[W(7-Me)]-Q-[Pen]-Phe[4-(2-aminoethoxy)]-[2-Nal]-[a-MeLeu]-[Lys(Ac)]-[N-MeAla]-[bA]-NH2; Pen-Pen disulfide
B17: SEQ ID NO: 214 (peptide)
peptide: XNTXQXXXXKHX
modifications: Ac-[Pen]-NT-[W(7-Me)]-Q-[Pen]-Phe[4-(2-aminoethoxy)]-[2-Nal]-[a-MeLeu]-[Lys(Ac)]-H-[bA]-NH2; Pen-Pen disulfide
B18: SEQ ID NO: 261 (peptide)
peptide: Ac-[Pen]NT[Trp(7-Me)][Cit][Pen][AEF][2Nal][αMeK]K(Ac)N[dS]-NH2
modifications: disulfide 1-6 (inferred)

What was measured:
IL-23R [1] = target: T1, IL-23R; experiment: cell-based or functional assay
IL-23R [2] = target: T1, IL-23R; experiment: cell-based or functional assay; remark: listed apart in the source

Binder	NK Cell Assay (nM) IC50 (IL-23R [1]) [nM]	pStat3 HTRF (nM) IC50 (IL-23R [2]) [nM]
B1	< 10	< 1
B2	< 10	< 1
B3	< 10	< 1
B4	< 10	–
B5	–	< 1
B6	< 10	–
B7	< 10	–
B8	< 10	< 1
B9	–	> 100
B10	< 10	–
B11	< 10	–
B12	< 10	–
B13	< 10	–
B14	–	< 1
B15	< 10	–
B16	< 10	> 100
B17	< 10	–
B18	< 10	< 1
